B1: TPR t1 (parent)
chain: GACCAAUCUGCCCUCAGAGCUCGAGAACAUCUUCGGAUGCAGAGGAGGCAGGCUUCGGUGGCGCGAUAGCGCCAACGUCCUCAACCUCCAAUGCAUCCCACCACAUGAUGAUGCCUGAAGAGCCUUGGUUUUUUG

Variants of: B1
Test: polymerase ribozyme fitness, log enrichment relative to wild type (log ratio); higher = more active; in vitro selection for triplet polymerase activity
Method in brief: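 Mutant libraries for each subunit of a heterodimeric triplet polymerase ribozyme were made by PCR and then transcribed. Each library underwent one round of in vitro selection in triplicate: annealing with a biotinylated primer, the partner subunit and triplets, frozen incubation at −7 °C, gel excision of extended constructs, streptavidin-bead capture and RT-PCR. Input and output libraries were Illumina-sequenced, and only genotypes with ≥10 input reads and ≥1 read per output were kept. Fitness is the logarithm, base 2, of genotype enrichment over wild-type enrichment, computed from inverse-variance-weighted replicate averages.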

| Variant | polymerase ribozyme fitness (log ratio) |
| --- | --- |
| C11G U78G A91G A95C G135U | -1.3 |
| G107A A121C | -3.64 |
| C13G U133A | -2.17 |
| C13G U54C C89U A90U | -3.33 |
| G10U A29U C86A U112C | -1.11 |
| C12A A16C | -2.4 |
| G69C G93C G122A | -4.01 |
| C102A C114A | -4.17 |
| C34U G63A A90G | -6.16 |
| C12A U54A U92G U132C | -3.79 |
| C13A A90G | -1.55 |
| G58C C73A U81A C89A | -3.31 |
| C8G C89U U106A | 0.442 |
| A83G C85A | -2.68 |
| C49A A66U A90C | -3.76 |
| C88A A121U | 0.835 |
| C11A A91C | -2.43 |
| G63U C98A | -6.63 |
| C40U A118G | -1.24 |
| C40U C76U | -0.869 |
| G44C C73U C86U U96G U129C | -2.46 |

| Variant | polymerase ribozyme fitness (log ratio) |
| --- | --- |
| G10A U87G G110U | -1.12 |
| G69U U87C | 0.421 |
| A5U C11U | -1.46 |
| C73U U87C C88U A111G C123A | -2.06 |
| G77A U78G | -0.219 |
| C11G C64A A111U U130G | -6.86 |
| G52A G57C C72U U116A U129C | -4.37 |
| C28U A43U U59G C73U | -6.04 |
| C86U C101G | -2.55 |
| A18C C40U C73U | -2.05 |
| C12U C28U C53G U129A U130C | -2.76 |
| G63C U125C | -3.57 |
| A16U A75G A83U A100U G110A | -4.47 |
| C3U C40U | -1.92 |
| G61C C115G | -4.37 |
| C13G G58C C64U U92C | -3.39 |
| C12U C72G C86U C104U G122A | -0.0421 |
| C40U G45C C49U G63U A83U C124G | -6.14 |
| G47C C56G | -1.79 |
| G39C G63A C76A G117C | -6.26 |
| G61C G113A | -2.26 |

| Variant | polymerase ribozyme fitness (log ratio) |
| --- | --- |
| G51A C89G | -4.83 |
| G19C G42C G110U G113A | -5.33 |
| G39A C86G | -1.11 |
| G44U G52U U55A U132A | -2.55 |
| C79A G117U | -3.95 |
| C94G A118U | -0.748 |
| G52A C98A | -4.54 |
| A43G C101U A108G | -2.96 |
| U55G C82A | -0.266 |
| C22U G63U U78G U112A | -6.24 |
| C13U U55G A95U A111C A121U G127C | -0.336 |
| C97U U106G C123U | -2.04 |
| C8U C53U U92G U131G | -2.8 |
| C34U A105G G120A | -5.77 |
| C64A G110A G120A | -7.98 |
| A2U C11U G69A | -4.07 |
| C70A U87A | -1.22 |
| A5G C28G U78A U96C G110U | -0.656 |
| G61A C86A | -0.514 |
| C3U U130C | 0.391 |
| C72G A90G | -1.28 |

| Variant | polymerase ribozyme fitness (log ratio) |
| --- | --- |
| G23A C94A A111G | -5.95 |
| A74C C89A U96A C115A | -3.51 |
| U30C A43U | -4.23 |
| G52C C70U C76U U106A | -2.68 |
| A90C C124U | 0.931 |
| C12A C34G G120A | -4.45 |
| C40U C72A C82G C102A G120A G122U | -3.11 |
| C8G C12U C15U G25A A27U G42C G61A U78C U112A U125A U131A | -6.3 |
| G44A C64A C76A | -6.8 |
| A50U C86U G93U U112C | -1.3 |
| C12U A75U | 0.0801 |
| A46G C73A A108G | -2.82 |
| C11A C89A A111U G122A | -5.04 |
| A6C U9C A46C G61A C62U C82U | -3.08 |
| C22G U67A G93C A103G G110U | -5.12 |
| C11A G36U G48C C62G C115A G120C | -4.4 |
| C40U A84C | -0.985 |
| U7C C40A | -0.659 |
| G60U G113U | -2.04 |
| C15A A37U G52C G63A U87A G120C | -4.33 |
| A43C G48A C88U | -1.82 |

— the RNAGym collection of RNA variant scans (doi:10.1073/pnas.2313332121)
